The source of these data is patent US6461630.

In the assay the target is demineralized, guanidine-extracted bovine collagen carrier matrix material (bovine) (UniProt P02453). The assay can be described thus: OP-1 in 47.5% ethanol/0.01% TFA incubated 3 h with bovine collagen matrix; fraction bound to the matrix before lyophilization.

Chain of OP-1 (P18075 293-431 limits assumed): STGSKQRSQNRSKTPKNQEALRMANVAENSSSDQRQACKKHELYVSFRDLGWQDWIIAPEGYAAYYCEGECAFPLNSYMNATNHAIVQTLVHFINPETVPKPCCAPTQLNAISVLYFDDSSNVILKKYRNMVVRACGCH

Consider “OP-1 (from UniProt P18075 293-431) (ligand)”, for which the % OP-1 bound at 3 hr lay within 53 to 64%.
